For this assay, the target named is soluble His-tagged Apo-2L (UniProt P50591). Description: KinExA; column head 'Affinity (pM)'. In general terms: Kinetic exclusion samples the free partner from a solution-phase mixture.

As usually defined, the Kd is the free concentration of one partner at which half of the binding sites on the other are occupied at equilibrium, for simple one-to-one binding. Low values mean higher affinity, high ones lower affinity.

UniProt P50591, sequence (P50591 114-281 limits assumed): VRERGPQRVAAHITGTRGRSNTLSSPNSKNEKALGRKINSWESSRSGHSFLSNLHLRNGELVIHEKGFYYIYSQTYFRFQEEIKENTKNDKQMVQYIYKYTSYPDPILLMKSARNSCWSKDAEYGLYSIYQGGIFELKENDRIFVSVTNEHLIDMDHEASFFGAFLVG

Take DR5-IgG (Fc fusion): the Kd came out at 1 pM.

For the origin of these results see patent US20040120947A1.
